Target: the molecule itself
Assay: SEC-MALS; Superdex 200 HR 10/30 coupled to MALS and refractive index detectors; 20 mM Tris-HCl pH 8.0, 150 mM NaCl; measured mass 103.72 kDa against 52.79 kDa theoretical monomer

B1: ω-transaminase from Vibrio fluvialis JS17 (Vfat), apo (cofactor-free) form (enzyme, UniProt F2XBU9 1-453, looked up)
chain: MNKPQSWEARAETYSLYGFTDMPSLHQRGTVVVTHGEGPYIVDVNGRRYLDANSGLWNMVAGFDHKGLIDAAKAQYERFPGYHAFFGRMSDQTVMLSEKLVEVSPFDSGRVFYTNSGSEANDTMVKMLWFLHAAEGKPQKRKILTRWNAYHGVTAVSASMTGKPYNSVFGLPLPGFVHLTCPHYWRYGEEGETEEQFVARLARELEETIQREGADTIAGFFAEPVMGAGGVIPPAKGYFQAILPILRKYDIPVISDEVICGFGRTGNTWGCVTYDFTPDAIISSKNLTAGFFPMGAVILGPELSKRLETAIEAIEEFPHGFTASGHPVGCAIALKAIDVVMNEGLAENVRRLAPRFEERLKHIAERPNIGEYRGIGFMWALEAVKDKASKTPFDGNLSVSERIANTCTDLGLICRPLGQSVVLCPPFILTEAQMDEMFDKLEKALDKVFAEVA
notes: ω-transaminase (amine:pyruvate transaminase) from Vibrio fluvialis JS17; 'the coding region of Vfat' cloned into pET24ma; theoretical mass with the His-tag 52.79 kDa; Homodimer by MALS and in the crystal; also called apo Vfat; amine:pyruvate transaminase; source: E. coli BL21 (DE3), purified (Ni-NTA, Superdex 200 gel filtration); not shown: His-tag, C-terminal, kept
- stoichiometry N: 2

— article PMC6065307, “Structural dynamics of the transaminase active site revealed by the crystal structure of a co-factor free omega-transaminase from Vibrio fluvialis JS17” (Scientific Reports, 2018)
